What was measured:
[1] = tested on: B16-F10; assay: Proteome labeling after transient transfection and AzY/AzF incubation, DIBO-Alexa Fluor 647 in-gel fluorescence; assay type: cell-based, mouse; details: transient transfection, 2 mM AzY or AzF
Description: (§1) Cells were lysed, pre-treated with iodoacetamide (IAM) to block background thiol-yne additions (25), and treated with dibenzocyclooctyne (DIBO)-Alexa Fluor 647 dye for copper-free, strain-promoted azide-alkyne cycloaddition.
(§2) Cell transfection, click amino acid labeling, and selection of stably transfected B16-F10 cells. Unless otherwise noted, cells were transiently transfected with Lipofectamine 3000 (Invitrogen) 24 hours prior to 4-Azido-L-phenylalanine (AzF, Chem-Implex) or 3-Azido-L-tyrosine (AzY, Watanabe Chemical Industries) labeling. For initial assessment of labeling across mammalian cell lines, transfected cells were incubated with 2 mM of AzF, AzY, tyrosine, or phenylalanine for 30 hours in 12-well plates prior to lysis. To characterize enzyme selectivity and rate of substrate activation, transfected HEK293T cells were incubated with varying amounts of endogenous and non-canonical amino acids for 24 hours in 12-well plates prior to lysis. For affinity enrichment prior to shotgun mass spectrometry, transfected HEK293T cells were incubated with 125 μM of endogenous and non-canonical amino acids for 24 hours in 10 cm dishes prior to lysis. B16-F10 cells were transfected with mutant synthetases in the Piggybac vector PB513B-1 for 72 hours prior to puromycin selection at 10 μg/ml for 10 days.
(§3) Copper-free reaction of DIBO-Alexa Fluor 647 with click-labeled cell lysates for in-gel fluorescence. After washing in PBS twice, cells were lysed 1% SDS in PBS with EDTA-free protease inhibitor (Roche). […] Protein concentrations were measured with a BCA Protein Assay Kit (Pierce) to ensure equal loading across gel wells (˜23 μg). […] Colloidally stained gels were imaged in the 800-nm channel of an Odyssey CLx (LI-COR), where no bleed-through of the Alexa Fluor 647 signal was detected. Quantification of signal intensities of labeled proteomes from each gel lane were analyzed in ImageJ as before, but with slight modifications (36). […] Instead, the mean and standard deviations were calculated from biological triplicates of whole gel lanes, less the dye front.

[2] = tested on: HEK293T cells; assay: Selectivity of ncAA activation over canonical amino acid, in-gel AF647 fluorescence fitted to Michaelis-Menten kinetics; assay type: cell-based, human; details: equimolar concentrations of the two amino acids; serum-containing media, 24 h
Description: FIGS. 2A-2E: Identification and characterization of TyrRS and PheRS variants for bioorthogonal labeling of mammalian proteomes with AzY and AzF. FIG. 2A: A single substitution (Y43G) in the amino acid binding site of yeast tyrosyl-tRNA synthetase (ScTyrY43G) enables charging of the azido tyrosine analog AzY onto tRNA^TYr before incorporation into nascent proteins of host cells. FIG. 2B: A single substitution (T413G) in the amino binding site of human or mouse phenylalanyl-tRNA synthetase (MmPheT413G) enables charging of the azido phenylalanine analog AzF onto tRNA^Phe. FIG. 2C: In-gel fluorescence image of Alexa Fluor 647 labeling corresponding to AzY or AzF incorporation into mammalian cell proteomes. ‘WT’: no exogenous amino acid added to media. ‘CP1 switch’: an E. coli TyrRS with the human CP1 peptide engrafted. ‘Mj TyRS’: TyrRS from the species M. jannaschii, without its accompanying tRNA. FIG. 2D: High selectivity of ScTyrY43G for AzY over Tyr. In-gel Alexa Fluor 647 fluorescence and coomassie blue staining of whole gel lanes were quantified to assess the degree of proteome labeling normalized to total protein content. […]
Copper-free reaction of DIBO-Alexa Fluor 647 with click-labeled cell lysates for in-gel fluorescence. […] Protein concentrations were measured with a BCA Protein Assay Kit (Pierce) to ensure equal loading across gel wells (˜23 μg). […]

[3] = tested on: CHO; assay: Proteome labeling after transient transfection and AzY/AzF incubation, DIBO-Alexa Fluor 647 in-gel fluorescence; assay type: cell-based, hamster; details: transient transfection, 2 mM AzY or AzF
Description: as §1, §2, §3

[4] = tested on: HEK293T; assay: as above; assay type: cell-based, human; details: transient transfection, 2 mM AzY or AzF
Description: as §1, §2, §3

B1: MmPheT413G: mouse phenylalanyl-tRNA synthetase with T413G substitution, charges AzF onto tRNA-Phe; SEQ ID NO:5 (protein)
chain: MADNPVLELLLRRLEVADGGLDSAELATQLGVEHQAVVGAVKSLQALGEVIEAELRSTKCWELTTEGEEIAREGSHEARVFRSIPLEGLVQSELMHLPSGKVGFSKAMSNKWIRVDKSAADGPRVFRVVDSIEDEVQKRLQLVQAGQAEKLAEKERNELRKRKLLTEVILKTYWVSKGKAFSTSVSKQEAELSPEMISSGSWRDRPFKPYNFSARGVLPDSGHLHPLLKVRSQFRQIFLEMGFTEMPTDNFIESSFWNFDALFQPQQHPARDQHDTFFLRDPAEALQLPMGYVQRVKRTHSQGGYGSQGYKYTWKLEEARKNLLRTHTTAASARALYQLAQKKPFTPAKYFSIDRVFRNETLDATHLAEFHQIEGVIADHGLTLGHLMGVLREFFTKLGITQLRFKPAYNPYGEPSMEVFSYHQGLKKWVEVGNSGVFRPEMLLPMGLPENVSVIAWGLSLERPTMIKYGINNIRELVGHKVNLQMVYDSPVCRLDIEPRSSKTQEAA
For B1, the proteome labeling [1] was “strong labeling”, the “activation of AzF faster than Phe” value [2] was “over 11 fold” and the proteome labeling [3] was “strong labeling”. The proteome labeling [4] was “strong labeling”.

B2: HsPheT413G: human phenylalanyl-tRNA synthetase with T413G substitution; SEQ ID NO:6 (protein)
chain: MADGQVAELLLRRLEASDGGLDSAELAAELGMEHQAVVGAVKSLQALGEVIEAELRSTKHWELTAEGEEIAREGSHEARVFRSIPPEGLAQSELMRLPSGKVGFSKAMSNKWIRVDKSAADGPRVFRVVDSMEDEVQRRLQLVRGGQAEKLGEKERSELRKRKLLAEVTLKTYWVSKGSAFSTSISKQETELSPEMISSGSWRDRPFKPYNFLAHGVLPDSGHLHPLLKVRSQFRQIFLEMGFTEMPTDNFIESSFWNFDALFQPQQHPARDQHDTFFLRDPAEALQLPMDYVQRVKRTHSQGGYGSQGYKYNWKLDEARKNLLRTHTTSASARALYRLAQKKPFTPVKYFSIDRVFRNETLDATHLAEFHQIEGVVADHGLTLGHLMGVLREFFTKLGITQLRFKPAYNPYGEPSMEVFSYHQGLKKWVEVGNSGVFRPEMLLPMGLPENVSVIAWGLSLERPTMIKYGINNIRELVGHKVNLQMVYDSPLCRLDAEPRPPPTQEAA
For B2, the proteome labeling [1] was “strong labeling”, the proteome labeling [3] was “strong labeling” and the proteome labeling [4] was “strong labeling”.

B3: ScTyrY43G: yeast tyrosyl-tRNA synthetase with Y43G substitution, charges AzY onto tRNA-Tyr; SEQ ID NO:4 (protein)
chain: MSSAATVDPNEAFGLITKNLQEVLNPQIIKDVLEVQKRHLKLGWGTAPTGRPHCGYFVPMTKLADFLKAGCEVTVLLADLHAFLDNMKAPLEVVNYRAKYYELTIKAILRSINVPIEKLKFVVGSSYQLTPDYTMDIFRLSNIVSQNDAKRAGADVVKQVANPLLSGLIYPLMQALDEQFLDVDCQFGGVDQRKIFVLAEENLPSLGYKKRAHLMNPMVPGLAQGGKMSASDPNSKIDLLEEPKQVKKKINSAFCSPGNVEENGLLSFVQYVIAPIQELKFGTNHFEFFIDRPEKFGGPITYKSFEEMKLAFKEEKLSPPDLKIGVADAINELLEPIRQEFADNKEFQEASEKGYPVATPQKSKKAKKPKNKGTKYPGATKTNEIATKLEETKL
B3 was tested, and the proteome labeling [1] was “strong labeling”, the “activation of AzY faster than Tyr” value [2] was roughly 250 fold and the proteome labeling [3] was “strong labeling”. The proteome labeling [4] was “strong labeling”.

Reference: patent US11921118B2, “Methods for proteome labeling” (The Board of Trustees of the Leland Stanford Junior …, priority 2018, dated 2024)
